B1: scFv; the commonest letter at each place (parent)
chain 1: EVKLDETGGGLVQPGRPMKLSCVASGFTFSDYWMNWVRQSPEKGLEWVAQIRNKPYNYETYYSDSVKGRFTISRDDSKSSVYLQMNNLRVEDMGIYYCTGSYYGMDYWGQGTSVTVS
chain 2: DVVMTQTPLSLPVSLGDQASISCRSSQSLVHSNGNTYLRWYLQKPGQSPKVLIYKVSNRFSGVPDRFSGSGSGTDFTLKISRVEAEDLGVYFCSQSTHVPWTFGGGTKLEIK

Experiments:
fluorescein = variants of: B1; test: Kd (Tite-Seq); settings: with fluorescein; format: scFv 4-4-20, heavy + light
[1] = variants of: B1; test: yeast surface expression (ratio to wild type); higher = more expressed; settings: format: scFv 4-4-20, heavy + light

Variant | Kd (fluorescein) | yeast surface expression [1]
chain 1 V37G | 71 nM | 0.58
chain 1 V37F | 25.9 nM | 0.9
chain 1 V37K | 3550 nM | 0.351
chain 1 V37A | 43.4 nM | 0.784
chain 1 V37C | ≤ 0.316 nM | 0.926
chain 1 V37L | 1140 nM | 0.782
chain 1 V37D | 1.22 nM | 1.05
chain 1 V37E | ≥ 10000 nM | 0.597
chain 1 V37I | 2.39 nM | 0.916
chain 1 V37H | 7720 nM | 0.831
chain 1 T28K W36R | 50.7 nM | 0.393
chain 1 T28R W36S | ≥ 10000 nM | 0.272
chain 1 T28P Y32D W36I | ≥ 10000 nM | 0.789
chain 1 T28Y M34W | 69.2 nM | 0.6
chain 1 T28Y D31W V37T | 6.38 nM | 0.808
chain 1 T28L D31G | 1.28 nM | 0.717
chain 1 T28L D31L | 22.1 nM | 0.425
chain 1 T28Q D31A | 5.75 nM | 0.845
chain 1 T28P F29V | 7.08 nM | 0.927
chain 1 T28N D31I Y32R | ≥ 10000 nM | 0.627
chain 1 T28V M34S | 35.3 nM | 0.593
chain 1 T28V M34Y | 9.66 nM | 0.889
chain 1 T28L S30R | 0.891 nM | 0.99

Variant | Kd (fluorescein) | yeast surface expression [1]
chain 1 T28L S30N | 1.22 nM | 0.861
chain 1 T28L S30A | 1.75 nM | 1.11
chain 1 T28L S30C | 1.58 nM | 0.839
chain 1 T28L S30Y | 1.84 nM | 0.738
chain 1 T28W D31Y | 110 nM | 0.371
chain 1 T28W D31F | 116 nM | 0.553
chain 1 T28W D31R | 17.1 nM | 0.51
chain 1 T28W S30G Y32K | 1550 nM | 0.576
chain 1 T28S V37Q | 1.84 nM | 0.71
chain 1 T28S V37S | 7.85 nM | 0.757
chain 1 T28R D31K | 3.25 nM | 0.833
chain 1 T28W W33F W36P | ≥ 10000 nM | 0.554
chain 1 T28Y F29T W33T | ≥ 10000 nM | 0.745
chain 1 T28W F29P S30F | ≥ 10000 nM | 0.601
chain 1 T28V F29W | 15.4 nM | 0.491
chain 1 T28V F29Q | 4 nM | 0.917
chain 1 T28V F29D | ≥ 10000 nM | 0.952
chain 1 T28Q M34P | ≥ 10000 nM | 0.676
chain 1 T28R S30F | ≤ 0.316 nM | 0.739
chain 1 T28N N35V | ≥ 10000 nM | 0.666
chain 1 T28N N35T | ≥ 10000 nM | 0.93
chain 1 T28Y F29W | ≥ 10000 nM | 0.672
chain 1 T28Y N35E | ≥ 10000 nM | 0.319

Variant | Kd (fluorescein) | yeast surface expression [1]
chain 1 T28Y N35Y | ≥ 10000 nM | 0.86
chain 1 T28Y N35S | ≥ 10000 nM | 0.691
chain 1 T28V N35H | ≥ 10000 nM | 0.671
chain 1 T28R S30L D31S | ≥ 10000 nM | 0.198
chain 1 T28W F29M | 13.9 nM | 0.897
chain 1 T28W F29R | ≥ 10000 nM | 0.615
chain 1 T28Q Y32S | 89.6 nM | 0.926
chain 1 T28Q W33V | ≥ 10000 nM | 1.34
chain 1 T28R D31L W33I | ≥ 10000 nM | 0.441
chain 1 T28M S30A W36F | 1.58 nM | 0.845
chain 1 T28S Y32S | 266 nM | 0.966
chain 1 T28S W33F | 1020 nM | 0.903
chain 1 T28S W33S | ≥ 10000 nM | 0.919
chain 1 T28V W33G | ≥ 10000 nM | 0.759
chain 1 T28P V37P | ≥ 10000 nM | 1.08
chain 1 T28P V37S | 0.939 nM | 0.884
chain 1 T28P D31S | 1.15 nM | 1.07
chain 1 T28N W33Y | ≥ 10000 nM | 1
chain 1 T28N W33M | ≥ 10000 nM | 1.01
chain 1 T28S S30T W33R | ≥ 10000 nM | 0.708
chain 1 T28S Y32F W36H | ≥ 10000 nM | 0.533

The next lines start with results.

Kd (fluorescein) | Variant | yeast surface expression [1]
9020 nM | chain 1 V37W | 0.746
129 nM | chain 1 V37Y | 1.04
0.333 nM | chain 1 V37M | 0.958
6.06 nM | chain 1 V37T | 0.626
5.61 nM | chain 1 V37S | 0.673
1080 nM | chain 1 V37R | 0.716
1.94 nM | chain 1 V37Q | 0.731
3.09 nM | chain 1 V37N | 0.62
≥ 10000 nM | chain 1 V37P | 0.676
≥ 10000 nM | chain 1 W33E W36L | 0.622
≥ 10000 nM | chain 1 W33C V37W | 0.503
≥ 10000 nM | chain 1 W33I N35Y V37C | 0.443
≥ 10000 nM | chain 1 W33C M34G N35E | 1.65
≥ 10000 nM | chain 1 W33M V37L | 0.553
≥ 10000 nM | chain 1 W33M V37P | 0.458
65.7 nM | chain 1 W33M V37E | 0.701
≥ 10000 nM | chain 1 W33A N35S W36M | 0.823
≥ 10000 nM | chain 1 W33F W36C | 0.455
≥ 10000 nM | chain 1 W33F W36L | 0.594
≥ 10000 nM | chain 1 W33D M34Q | 0.754
≥ 10000 nM | chain 1 W33D M34W | 1.03
≥ 10000 nM | chain 1 W33C W36G | 1.12
≥ 10000 nM | chain 1 W33H M34R V37T | 0.786
≥ 10000 nM | chain 1 W33A | 0.883
≥ 10000 nM | chain 1 W33N | 1.01

Kd (fluorescein) | Variant | yeast surface expression [1]
≥ 10000 nM | chain 1 W33L | 0.824
≥ 10000 nM | chain 1 W33I | 0.854
41.2 nM | chain 1 W33F | 0.902
≥ 10000 nM | chain 1 W33M | 0.887
≥ 10000 nM | chain 1 W33D | 0.986
≥ 10000 nM | chain 1 W33E | 1.05
≥ 10000 nM | chain 1 W33G | 0.809
≥ 10000 nM | chain 1 W33K | 0.699
≥ 10000 nM | chain 1 W33H | 0.765
≥ 10000 nM | chain 1 W33C | 0.827
≥ 10000 nM | chain 1 W33C M34Q | 0.755
≥ 10000 nM | chain 1 W33C M34K | 0.774
≥ 10000 nM | chain 1 W33H M34V V37L | 0.434
≥ 10000 nM | chain 1 W33D N35G | 0.941
≥ 10000 nM | chain 1 W33D V37C | 0.802
345 nM | chain 1 W33K V37L | 0.761
≥ 10000 nM | chain 1 W33F N35Q | 0.614
≥ 10000 nM | chain 1 W33F N35T | 0.824
≥ 10000 nM | chain 1 W33F N35F | 0.3
≥ 10000 nM | chain 1 W33I V37S | 0.617
5370 nM | chain 1 W33C N35W | 0.456
≥ 10000 nM | chain 1 W33N M34D | 0.567
≥ 10000 nM | chain 1 W33N M34F | 0.815
≥ 10000 nM | chain 1 W33G M34I | 0.433
